One molecule from paper doi:10.1101/2022.08.09.503213 (bioRxiv, 2022) can be followed below.

This assay concerns the target IFT140 with C-terminal TEV site and Strep-tag II (IFT140^Strep) (human, UniProt Q96RY7 1-1462). Description: pull-down.

IFT140 with C-terminal TEV site and Strep-tag II (IFT140^Strep), sequence (Q96RY7 whole entry): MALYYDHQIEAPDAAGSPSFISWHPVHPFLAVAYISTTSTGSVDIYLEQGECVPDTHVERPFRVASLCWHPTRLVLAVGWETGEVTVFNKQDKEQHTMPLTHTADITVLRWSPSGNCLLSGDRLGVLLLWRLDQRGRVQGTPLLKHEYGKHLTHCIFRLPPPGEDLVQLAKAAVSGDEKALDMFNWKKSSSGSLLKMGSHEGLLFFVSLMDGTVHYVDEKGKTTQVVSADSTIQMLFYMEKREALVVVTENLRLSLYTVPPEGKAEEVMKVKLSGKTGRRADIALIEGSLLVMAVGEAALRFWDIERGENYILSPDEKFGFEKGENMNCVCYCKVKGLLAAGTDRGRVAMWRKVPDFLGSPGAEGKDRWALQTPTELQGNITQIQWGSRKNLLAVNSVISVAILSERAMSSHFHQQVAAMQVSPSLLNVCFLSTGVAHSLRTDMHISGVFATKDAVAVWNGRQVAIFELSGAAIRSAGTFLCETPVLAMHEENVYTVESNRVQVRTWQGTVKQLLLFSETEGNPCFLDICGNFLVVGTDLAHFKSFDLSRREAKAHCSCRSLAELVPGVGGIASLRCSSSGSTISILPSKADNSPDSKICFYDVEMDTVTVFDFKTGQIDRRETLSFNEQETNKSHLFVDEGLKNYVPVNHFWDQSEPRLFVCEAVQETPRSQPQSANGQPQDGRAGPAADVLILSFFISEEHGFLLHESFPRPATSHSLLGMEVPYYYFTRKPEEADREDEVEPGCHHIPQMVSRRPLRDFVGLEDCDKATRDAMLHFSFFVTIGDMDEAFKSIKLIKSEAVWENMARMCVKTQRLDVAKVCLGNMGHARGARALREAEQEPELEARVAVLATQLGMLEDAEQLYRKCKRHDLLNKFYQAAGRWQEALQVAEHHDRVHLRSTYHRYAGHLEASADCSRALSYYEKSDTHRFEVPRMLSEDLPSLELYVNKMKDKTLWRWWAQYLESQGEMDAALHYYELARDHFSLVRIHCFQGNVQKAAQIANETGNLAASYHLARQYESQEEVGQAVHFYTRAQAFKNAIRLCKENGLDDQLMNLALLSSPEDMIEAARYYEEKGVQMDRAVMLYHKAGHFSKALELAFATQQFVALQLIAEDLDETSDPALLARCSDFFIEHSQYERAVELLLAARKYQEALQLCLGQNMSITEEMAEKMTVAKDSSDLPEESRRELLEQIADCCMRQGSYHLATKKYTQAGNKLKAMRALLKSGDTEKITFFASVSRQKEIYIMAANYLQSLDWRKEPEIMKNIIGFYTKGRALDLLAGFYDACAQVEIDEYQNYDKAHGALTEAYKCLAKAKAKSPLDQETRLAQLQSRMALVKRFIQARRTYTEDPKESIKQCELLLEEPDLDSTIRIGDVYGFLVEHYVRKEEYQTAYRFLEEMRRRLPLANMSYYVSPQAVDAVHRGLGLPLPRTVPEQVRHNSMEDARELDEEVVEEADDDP

B1: IFT144 with C-terminal TEV site and FLAG tag (IFT144^FLAG) (natural protein, human, UniProt Q8NEZ3 1-1342, looked up)
chain: MKRIFSLLEKTWLGAPIQFAWQKTSGNYLAVTGADYIVKIFDRHGQKRSEINLPGNCVAMDWDKDGDVLAVIAEKSSCIYLWDANTNKTSQLDNGMRDQMSFLLWSKVGSFLAVGTVKGNLLIYNHQTSRKIPVLGKHTKRITCGCWNAENLLALGGEDKMITVSNQEGDTIRQTQVRSEPSNMQFFLMKMDDRTSAAESMISVVLGKKTLFFLNLNEPDNPADLEFQQDFGNIVCYNWYGDGRIMIGFSCGHFVVISTHTGELGQEIFQARNHKDNLTSIAVSQTLNKVATCGDNCIKIQDLVDLKDMYVILNLDEENKGLGTLSWTDDGQLLALSTQRGSLHVFLTKLPILGDACSTRIAYLTSLLEVTVANPVEGELPITVSVDVEPNFVAVGLYHLAVGMNNRAWFYVLGENAVKKLKDMEYLGTVASICLHSDYAAALFEGKVQLHLIESEILDAQEERETRLFPAVDDKCRILCHALTSDFLIYGTDTGVVQYFYIEDWQFVNDYRHPVSVKKIFPDPNGTRLVFIDEKSDGFVYCPVNDATYEIPDFSPTIKGVLWENWPMDKGVFIAYDDDKVYTYVFHKDTIQGAKVILAGSTKVPFAHKPLLLYNGELTCQTQSGKVNNIYLSTHGFLSNLKDTGPDELRPMLAQNLMLKRFSDAWEMCRILNDEAAWNELARACLHHMEVEFAIRVYRRIGNVGIVMSLEQIKGIEDYNLLAGHLAMFTNDYNLAQDLYLASSCPIAALEMRRDLQHWDSALQLAKHLAPDQIPFISKEYAIQLEFAGDYVNALAHYEKGITGDNKEHDEACLAGVAQMSIRMGDIRRGVNQALKHPSRVLKRDCGAILENMKQFSEAAQLYEKGLYYDKAASVYIRSKNWAKVGDLLPHVSSPKIHLQYAKAKEADGRYKEAVVAYENAKQWQSVIRIYLDHLNNPEKAVNIVRETQSLDGAKMVARFFLQLGDYGSAIQFLVMSKCNNEAFTLAQQHNKMEIYADIIGSEDTTNEDYQSIALYFEGEKRYLQAGKFFLLCGQYSRALKHFLKCPSSEDNVAIEMAIETVGQAKDELLTNQLIDHLLGENDGMPKDAKYLFRLYMALKQYREAAQTAIIIAREEQSAGNYRNAHDVLFSMYAELKSQKIKIPSEMATNLMILHSYILVKIHVKNGDHMKGARMLIRVANNISKFPSHIVPILTSTVIECHRAGLKNSAFSFAAMLMRPEYRSKIDAKYKKKIEGMVRRPDISEIEEATTPCPFCKFLLPECELLCPGCKNSIPYCIATGRHMLKDDWTVCPHCDFPALYSELKIMLNTESTCPMCSERLNAAQLKKISDCTQYLRTEEEL
With B1, the binding result is on record as “binds”.
